Test results taken from US20260265360A1, “USE OF ANTI-FAM19A5 ANTAGONISTS FOR TREATING HEARING DISORDERS” (NEURACLE SCIENCE CO., LTD., priority 2023, published 2026).

What was measured:
[1] = test system: human FAM19A5 protein epitope fragments F1-F6; test: Epitope mapping: binding to BSA-conjugated FAM19A5 epitope fragments F1-F6 (Western blot / ELISA); conditions: for binding to epitope fragment F5: Western blot and/or ELISA
Method: (§1) Overlapping peptide fragments (F1-F6 epitope fragments; SEQ ID NOs: 178-183) of the human FAM19A5 protein were synthesized and conjugated to BSA (SEQ ID NOs: 322-327). Binding of the different anti-FAM19A5 antibodies to the BSA-conjugated peptide fragments F1-F6 was determined by Western blot analysis or ELISA assay. For the Western blot analysis, BSA-conjugated FAM19A5 fragments F1-F6 were separated by SDS polyacrylamide gel electrophoresis and transferred to a nitrocellulose membrane by the standard procedure. The membrane was incubated with the anti-FAM19A5 antibody (e.g., 1-65, […], 1-65-scFv-rabbit Fc-SSS), and the antigen-antibody complexes were detected with the appropriate secondary antibody conjugated with horse-radish peroxidase (anti-rabbit IgG (Fc specific)-HRP, 1:4000 dilution). For the ELISA assay, the following protocol was used. FAM19A5 fragment F1-F6 (diluted to 1 μg/mL in 50 mM carbonate buffer (Biosesang) or to 20 μg/mL for high concentration analysis) were used to coat the wells of 96-well immuno plates (Thermo Scientific) (100 μL/well) overnight at 4° C. and then subsequently washed twice in 1×PBS. The plates were then blocked with the blocking buffer (100 μL/well) for 1 hour at room temperature. During the 1-hour incubation, the relavant anti-FAM19A5 antibodies were diluted to 1 μg/mL (or 20 μg/mL for high concentration analysis) in the diluent buffer. Once the plates were washed (2× using 1×PBS), the diluted anti-FAM19A5 antibodies were added to the appropriate wells, and the plates were incubated at room temperature for 1 hour. The plates were subsequently washed for a total of five times using the washing buffer. Next, the ODP substrate (prepared by dissolving one ODP tablet (O-phenylenediamine Dihydrochloride, Thermo) into 9 mL of sterilized deionized water and 1 mL of 10× stable Peroxide Stable buffer (Theromo)) was added to each of the wells, and the color change reaction was allowed to occur for 10 minutes. This reaction was stopped by adding 100 μL of 2N H2SO4 (Daejung) to the wells. The absorption value of each of the wells was detected at 492 nm using a 96-well microplate reader (Molecular Device).

[2] = test system: FAM19A5 epitope fragment F5 mutant peptides F5-1 to F5-8; test: ELISA binding to mutant F5 peptide fragments (alanine substitution); set-up: species or system human
Method: as §1
Next, to identify the specific amino acid residues within the eptitope fragment F5 that the 1-65 and P2-C12 antibodies bind to, different amino acid residues of the F5 fragment were replaced with alanine as shown in Table 11 (below). The mutated residues are bolded and underlined. The binding affinity of the indicated anti-FAM19A5 antibodies were measured using an ELISA assay as described above.

FAM19A5 mutants M1 to M8 [3] = biological target: T1, FAM19A5 mutants M1 to M8 (Homo sapiens, UniProt Q7Z5A7); test: Epitope mapping ELISA with FAM19A5 mutants M1-M8; assay type: binding
T1 construct: made in house; host or cells: phage display with helper phage
T1 sequence (Q7Z5A7 with tags, fused parts or gaps isoform Q7Z5A7-2, change not shown): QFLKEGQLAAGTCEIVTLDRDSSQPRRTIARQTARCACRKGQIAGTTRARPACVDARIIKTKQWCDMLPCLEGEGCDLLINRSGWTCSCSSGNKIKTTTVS
Method: (§2) To further characterize the binding epitopes of the anti-FAM19A5 antibodies disclosed in the present disclosure, the amino acid sequences for the different FAM19 family members (i.e., FAM19A1-5) were aligned. […] The amino acid sequences of these regions were replaced with the consensus sequence of the corresponding regions for the FAM19A1-4 proteins. See Table 13 (the mutated amino acid residues are bolded and underlined).
(§3) The mutant FAM19A5-expressing phages were prepared as follows. To prepare the media for phage culture, 55.6 ml of 2M Glucose (D-(+)-Glucose, Sigma), 5 mL of 1M MgCl2 (Magnesium chloride, Junsei) 1 mL of 34 mg/mL chloramphenicol (Sigma) were added to 2×YT media. Colonies obtained through mono-phage ELISA were selected and placed in 5 mL of prepared media (2×YT-GMC) to be cultured for 16 hours at 37° C. with shaking incubator (VS-8480, Vision). 100 μL of each culture was transferred to 10 mL 2×YT-GMC individually which were cultured at 37° C. in the incubator until detection value at O.D. 600 nm reached 0.5. Once detection value has reached 0.5 at O.D. 600 nm, 5 mL of each culture were obtained as samples to be infected. Following sample preparation, 50 μL of […] was added to individual samples then incubated at 37° C. without shaking for 30 minutes and with shaking for additional 30 minutes. Individual cultures were centrifuged for 15 minutes at 3,850 rpm using Micro centrifuge (Micro12, Hanil). The supernatants of centrifuged cultures were removed to be kept separate and replaced with 5 mL of 2×YT media containing 1 mL of IM IPTG (AG Scientific), 5 mL of 1M MgCl2.1 ml of 70 μg/μL kanamycin (Biopure) and 1 mL of Chloramphenicol. The resulting pellets were dispersed thoroughly in newly added media followed by incubation at 30° C. for 16 hours with stirring.

FAM19A5 mutants M1 to M8 [4] = biological target: T2, FAM19A5 mutants M1 to M8 (Homo sapiens, UniProt Q7Z5A7, D109K/G107E/I112P/L110T/N113D/R114N); test: Epitope mapping ELISA with FAM19A5 mutants M1-M8; assay type: binding
T2 construct: made in house; host or cells: phage display with helper phage
T2 sequence (Q7Z5A7 26-125 isoform Q7Z5A7-2 G100E/D102K/L103T/I105P/N106D/R107N): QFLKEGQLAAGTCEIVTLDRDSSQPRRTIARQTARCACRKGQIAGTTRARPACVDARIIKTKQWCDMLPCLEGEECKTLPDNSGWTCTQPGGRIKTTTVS
Method: as §2, §3

FAM19A5 mutants M1 to M8 [5] = biological target: T3, FAM19A5 mutants M1 to M8 (Homo sapiens, UniProt Q7Z5A7, D98Q/K92L/K94R/L100E/P101L/Q95W/T93Q); test: Epitope mapping ELISA with FAM19A5 mutants M1-M8; assay type: binding
T3 construct: made in house; host or cells: phage display with helper phage
T3 sequence (Q7Z5A7 26-125 isoform Q7Z5A7-2 K85L/T86Q/K87R/Q88W/D91Q/L93E/P94L): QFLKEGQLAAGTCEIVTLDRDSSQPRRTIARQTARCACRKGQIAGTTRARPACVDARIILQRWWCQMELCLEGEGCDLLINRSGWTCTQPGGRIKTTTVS
Method: as §2, §3

FAM19A5 antigen = FAM19A5 antigen (Homo sapiens, UniProt Q7Z5A7); test: Cross-competition two-site sandwich ELISA; assay type: binding; conditions: antibodies 1-65, P2-A03, P2-F11, 13B4, 2-13, 3-2; cross-competition = S/N ratio lower than 2
FAM19A5 antigen, sequence (Q7Z5A7 44-132): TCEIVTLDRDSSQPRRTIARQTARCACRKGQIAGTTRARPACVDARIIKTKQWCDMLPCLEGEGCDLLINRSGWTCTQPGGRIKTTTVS
Method: The term “S/N” refers to the signal to noise ratio, which is measured as follows: [O.D. of 10 ng/ml antigen]/[O.D. of 0 ng/ml antigen].
Next, a two-site sandwich ELISA was used as described below to assess whether the different anti-FAM19A5 antibodies with similar binding epitopes cross-compete with each other.
First, the indicated anti-FAM19A5 antibodies were diluted in 1×PBS to a concentration of 10 μg/mL. The diluted anti-FAM19A5 antibodies (10 μg/mL in 1×PBS) (“capture antibody”) were used to coat the 96-well plates (100 μL/well) at 37° C. for approximately 1 hour. After the incubation, the plates were washed with the washing buffer (0.01% Tween-20/PBS; also called 0.01% PBST) for a total of five washes, blocked with the blocking solution (5% BSA/PBS; also called 5% PBSA) (250 μL/well) for one hour at 37° C., and then washed again. Next, 100 μg/mL of the FAM19A5 antigen (diluted in PBS containing 5% BSA, 0.01% Tween-20; also called 5% PBSAT; “diluent buffer) was added to each of the wells, and the 96-well plates were incubated for 2 hours at 37° C. After the incubations, the plates were washed using 0.01% PBST for a total of five washes. After the final wash, the indicated biotinylated anti-FAM19A5 antibodies (“detection antibody”) (diluted to lug/mL in 5% PBSAT) were added to the relevant wells (100 μL volume) and the plates were incubated for an additional 1 hour at 37° C. Afterwards, the plates were washed again with 0.01% PBST (five total washes). Next, 100 μL of the diluted (1/2000 in 5% PBSAT) Streptavidin-HRP (1 mg/mL, Sigma, USA) was added to the wells, and the plates were incubated for 30 minutes at room temperature. The plates were then washed and treated with 100 μL of the TMB substrate ([…], Thermo Fisher Scientific). After an additional 30-minute incubation at room temperature, the color change reaction was induced by the addition of the TMB substrate. This reaction was stopped using 50 μL of sulfuric acid (2N H2SO4), and the extent of color change was detected via absorption at 450 nm with reference wavelength at 620 nm using a 96 well microplate reader (Molecular Device).

[6] = test system: FAM19A5 epitope fragment F2 mutant peptides; test: ELISA binding to mutant F2 peptide fragments (alanine scanning); set-up: species or system human
Description: FIGS. 25A-25J provide the results of the alanine scanning analysis, showing the specific amino acid residues in the epitope F2 fragment that are important for the binding of the various 3-2 antibody variants to FAM19A5 protein. FIGS. 25A, 25B, 25C, and 25D show the results for the following antibodies generated in HEK293F cells: (A) wild-type 3-2 antibody, (B) 1-30 antibody, (C) 1-32 antibody, and (D) 6-10 antibody, respectively. FIGS. 25E, 25F, 25G, 25H, 25I, and 25J show the results for the following antibodies generated in CHO cells: (E) 1-17 antibody, (F) 1-30 antibody, (G) 1-32 antibody, (H) 4-11 antibody, (I) 6-10 antibody, and (J) low-PI antibody, respectively. […] Binding of the antibodies to the different mutant peptides was measured using ELISA.
Overlapping peptide fragments (F1-F6 epitope fragments; SEQ ID NOs: 178-183) of the human FAM19A5 protein were synthesized and conjugated to BSA (SEQ ID NOs: 322-327). Binding of the different anti-FAM19A5 antibodies to the BSA-conjugated peptide fragments F1-F6 was determined by Western blot analysis or ELISA assay. […] The membrane was incubated with the anti-FAM19A5 antibody (e.g., 1-65, […], 1-65-scFv-rabbit Fc-SSS), and the antigen-antibody complexes were detected with the appropriate secondary antibody conjugated with horse-radish peroxidase (anti-rabbit IgG (Fc specific)-HRP, 1:4000 dilution). […]

FAM19A5 mutants M1 to M8 [7] = biological target: T4, FAM19A5 mutants M1 to M8 (Homo sapiens, UniProt Q7Z5A7, D53C/P57N/Q56K/S54C/S55N); test: Epitope mapping ELISA with FAM19A5 mutants M1-M8; assay type: binding
T4 construct: made in house; host or cells: phage display with helper phage
T4 sequence (Q7Z5A7 26-125 isoform Q7Z5A7-2 D46C/S47C/S48N/Q49K/P50N): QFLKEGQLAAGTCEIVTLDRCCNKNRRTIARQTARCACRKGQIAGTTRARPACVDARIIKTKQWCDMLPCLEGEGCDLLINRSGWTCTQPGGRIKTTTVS
Method: as §2, §3

Molecule	binding to epitope fragment F5 [1]	binding to F5 fragment with D13, L14, I16 or R18 mutated to alanine ([2]; numbering per SEQ ID NO: 275)	binding to F5 mutant peptides #1, 5, 6, and 7 ([2]; similar affinity)	binding to FAM19A5 mutant M8 (FAM19A5 mutants M1 to M8 [3])	binding to FAM19A5 mutant M7 (FAM19A5 mutants M1 to M8 [4])	binding to FAM19A5 mutant M6 (FAM19A5 mutants M1 to M8 [5])	cross-competition with the other anti-FAM19A5 antibodies (FAM19A5 antigen)	binding to the other fragments (F1-F4 and F6) ([1]; ELISA)	binding to F5 mutant peptides #1, 6, and 8 [2]	binding to F5 mutant peptides #2, 3, 4, 5, and 7 [2]	binding to mutant F2 peptide fragments #1, 2, 6, and 8-13 [6]	binding to mutant F2 peptide fragments #3, 4, 5, and 7 [6]	binding to FAM19A5 mutant M2 (FAM19A5 mutants M1 to M8 [7])
1-65: anti-FAM19A5 antibody; VH SEQ ID NO: 37, VL SEQ ID NO: 41 (antibody, V domains shown, 1-65 VH; 1-65 VL) VH: AVTLDESGGGLQTPGGALSLVCKASGFTFSSYQMGWVRQAPGKGLEWVGVINKSGSDTSYGSAVKGRATISRDNGQSTVRLQLNNLRAEDTGTYFCAKGSASYITAATIDAWGHGTEVIVSS VL: ALTQPSSVSANPGETVKITCSGGGSSGYGYGWYQQKSPSSAPLTVIYWNDKRPSDIPSRFSGSKSGSTHTLTITGVQAEDEAVYFCGNDDYSSDSGYVGVFGAGTTLTVL	bound strongly	no longer able to bind	able to bind	failed to bind	failed to bind	failed to bind	cross-competed with one another						
13B4: anti-FAM19A5 antibody; VH SEQ ID NO: 156, VL SEQ ID NO: 167 (antibody, V domains shown, 13B4 VH; 13B4 VL) VH: QVQLQESGPGLVKPSGTLSLNCAVSGGSISSSNWWSWVRQPPGKGLEWIGEIYHGGTTNYNPSLKGRVTMSVDKTKNQFSLRLSSVTAVDTAVYYCARWQLVGGLDVWGQGTTVTVSS VL: SYELTQPLSVSVSPGQTASITCSGDKLGNVYASWYQQKPGQSPTLVIYQDNKRPSGIPERFSGSNSGKTATLTISGTQALDEADYYCQAWDSSTAVFGGGTKLTVL				failed to bind	reduced binding	failed to bind	cross-competed with one another						
P2-C12: anti-FAM19A5 antibody; VH SEQ ID NO: 155, VL SEQ ID NO: 166 (antibody, V domains shown, P2-C12 VH; P2-C12 VL) VH: QSLEESGGRLVTPGTPLTLTCTVSGFSLSTYAVTWVRQAPGKGLEWIGYINWRGGTSYANWAKGRFTISKTSSTTVDLKMTSPTTEDTATYFCARDASSGAAFGSYGMDPWGPGTLVTVSS VL: ELDMTQTPSSVSAAVGGTVTIKCQASQSISSYLSWYQQKPGQPPKLLIYEASKLASGVPSRFSGSGYGTEFTLTISDLECADAATYYCQQGYSSTNVWNAFGGGTNVEIK	strongly			strongly binding		failed to bind		not significantly	not to mutant peptides #1, 6, and 8	high binding			
1-28: anti-FAM19A5 antibody; VH SEQ ID NO: 38, VL SEQ ID NO: 42 (antibody, V domains shown, 1-28 VH; 1-28 VL) VH: AVTLDESGGGLQTPGGALSLVCKASGFDFSDYGMGWVRQAPGKGLEWVAAIRSDGSNPSYGSAVKGRATISKDNGRSTVRLQLNNLRAEDTATYYCAKDGNGYCALDAYRSGGYSCGVYPGSIDAWGHGTEVIVSS VL: ALTQPSSVSANLEGTVEITCSGSGYGYGWYQQKSPGSAPVTVIYQNDKRPSDIPSRFSGSKSGSTGTLTITGVQVEDEAVYYCGSEDSSTLAGIFGAGTTLTVL											bound strongly	much reduced binding	failed to bind
